This passage reports Kd results from patent US20170035877A1 (published 2017).

In this assay the target is soluble four-domain CD4 (UniProt P01730 26-390). Nature of the assay: ITC. A general note: ITC needs no label: the signal is the heat of the interaction.

B1: 16055 SOSIP.663 trimer, negatively selected (flow-through of the GE136 column) (other)
chain 1: not shown
chain 2: AVGLGAVIFGFLGAAGSTMGAASITLTVQARQLLSGIVQQQSNLLKAPEAQQHLLQLTVWGIKQLQTRVLAIERYLKDQQLLGIWGCSGKLICCTAVPWNSSWSNKSHDEIWGNMTWMQWDREISNYTNTIYRLLEDSQNQQEQNEKDLLAL
With B1, binding was put at a Kd of 6 nM.

One may read the Kd as the equilibrium constant for the complex coming apart. Higher therefore signals a looser complex.
